This note sets out measurements from patent US20130231277A1.

The assay concerns the target FGFR1c endogenously expressed by HEK293 cells transiently transfected with murine βKlotho (UniProt P11362). In words: cell-based or functional assay.

Sequence of FGFR1c endogenously expressed by HEK293 cells transiently transfected with murine βKlotho (P11362 22-822): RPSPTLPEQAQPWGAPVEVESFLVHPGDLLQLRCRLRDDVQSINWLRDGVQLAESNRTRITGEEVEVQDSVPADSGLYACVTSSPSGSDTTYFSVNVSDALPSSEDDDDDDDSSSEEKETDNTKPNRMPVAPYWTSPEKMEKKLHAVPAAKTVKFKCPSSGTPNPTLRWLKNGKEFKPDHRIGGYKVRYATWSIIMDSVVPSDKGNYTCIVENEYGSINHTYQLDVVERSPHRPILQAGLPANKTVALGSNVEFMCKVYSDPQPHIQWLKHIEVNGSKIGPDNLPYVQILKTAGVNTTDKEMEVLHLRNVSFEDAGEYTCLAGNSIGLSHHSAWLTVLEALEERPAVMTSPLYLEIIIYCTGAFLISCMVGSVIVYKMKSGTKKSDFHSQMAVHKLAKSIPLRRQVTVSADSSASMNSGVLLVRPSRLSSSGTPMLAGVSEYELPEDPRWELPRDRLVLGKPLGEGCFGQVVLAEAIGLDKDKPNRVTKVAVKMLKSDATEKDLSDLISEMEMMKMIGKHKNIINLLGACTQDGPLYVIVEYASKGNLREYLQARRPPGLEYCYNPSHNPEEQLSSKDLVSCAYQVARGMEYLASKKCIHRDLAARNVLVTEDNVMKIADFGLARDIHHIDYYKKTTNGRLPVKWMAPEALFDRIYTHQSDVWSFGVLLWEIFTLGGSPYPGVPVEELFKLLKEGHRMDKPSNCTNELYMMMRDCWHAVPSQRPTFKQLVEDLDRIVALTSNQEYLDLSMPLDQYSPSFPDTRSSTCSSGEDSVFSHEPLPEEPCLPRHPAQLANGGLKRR

On to “Q104M single mutant of human FGF21 (SEQ ID NO: 152) (from UniProt Q9NSA1 29-209) (ligand)”, for which the Induction of Egr1 protein expression (immunoblot, HEK293 cells co-expressing FGFR1c and βKlotho) was determined as 30 ng/mL.
